Measurements as given in patent publication US20150064751.

Tested on: cleavage control protein containing an enterokinase cleavage site (Asp-Asp-Asp-Asp-Lys)

Q: recombinant enterokinase (Novagen) was tested. Which “protease cleavage, detection of the 16 kDa cleavage fragment by immunoblot (2 h, room temperature)” value did it give?
A: The value was “The target protein was specifically cleaved by recombinant enterokinase (lane 2)”.
